# From the supplement of paper PMC12042874
# ± gives the uncertainty stated by the source.
# Assay: amyloid nucleation score (Sup35N fusion, yeast selection) (log enrichment); library NNK2; higher = more nucleation; inactive = no reads after selection
# How it was run: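 Peptides of 20 random codons fused to Sup35N were expressed in psi-negative yeast, induced 24 hours with 100 μM copper sulfate, then grown 7 days at 30°C on medium lacking adenine and uracil. Input and output plasmid inserts were Illumina-sequenced. Nucleation score is the DiMSum log enrichment of output over input reads, centred on the mode score of non-aggregating sequences, excluding sequences with under 100 input reads. Random libraries had three technical output replicates.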
row,Substance,amyloid nucleation score
1,SQKLSIQYQLRYFILLVKPR,-0.704 ± 0.5
2,SQRHRAFTSWRGLMRYN,-0.476 ± 1.1
3,SQRRKQLEYHAVLWY,-0.289 ± 0.76
4,SQTMVITFFSRCDVQIVKIN,5.583 ± 0.03
5,SRAIECVRIYTFNSHSWFIA,-1.38 ± 1.1
6,SRDAKRALFDLDHRTRWDHK,4.62 ± 0.079
7,SREINITLGKTFYPSRMYGV,4.48 ± 0.05
8,SREYDCYLWRNLVWNCWMNW,5.638 ± 0.048
9,SRFCSIIITMNVNHLPV,5.79 ± 0.068
10,SRIIYMPPPVCHESLGKRPV,-0.296 ± 0.63
11,SRLGVFMYANVLWGKQSRND,6.267 ± 0.058
12,SRLVVRN,inactive
13,SRPFMIYREYVASSIVSNQL,-0.606 ± 0.29
14,SRPMTWGRKDVGSGSLQDYA,0.248 ± 0.33
15,SRTDRLDGCAWLLYDCTMGD,-0.211 ± 0.53
16,SRTDVPSTMLLSESRAVNYY,-0.569 ± 1.1
17,SRTYATRLQLM,0.007 ± 0.76
18,SRVEVNALVLISYYPVLDTA,5.736 ± 0.039
19,SRVIVTDFVNSNATA,0.218 ± 0.51
20,SSCGYLKTTFSKLSEAHCYR,-1.45 ± 1.1
21,SSCRGIEWRFQTGNITQWLG,-0.165 ± 0.23
22,SSDLAGQRLSLCWVLCTG,0.474 ± 0.53
23,SSFAARRR,0.276 ± 0.28
24,SSFLATVSVQCNDRYNSHRS,4.26 ± 0.064
25,SSIRLFCFTMAHVHMTDSHD,4.53 ± 0.11

row,Substance,amyloid nucleation score
1,SSIWPIPFYILGVFKVSSVW,inactive
2,SSKETGRRTVDRFQYMTRYR,1.94 ± 0.32
3,SSLFYERRIQLCVFI,3.63 ± 0.077
4,SSLNHNPGWTEIYELHLVGF,0.27 ± 0.8
5,SSMILLVYCPYVPWNRSRR,4.8 ± 0.041
6,SSQSRSISYGLGNCWSWWL,2.71 ± 0.081
7,SSRNASGYAWRVSNCVCVWG,7.9 ± 0.079
8,SSRQSW,0.082 ± 1
9,SSRTMRFNVRG,0.722 ± 0.26
10,SSSLSWLS,-0.609 ± 0.76
11,SSSWSNTHRFCLRTL,inactive
12,SSVISLNILFFMGEPENSLL,6.424 ± 0.05
13,SSVMPAVIAFACCCNKSTFA,-0.237 ± 0.38
14,SSYGIFVVGMLGSCRVQSRF,3.79 ± 0.041
15,SSYKTLPAMLVARMLINYTV,-1.02 ± 0.45
16,SSYLGMENQRLMRKESGCCL,0.09 ± 0.41
17,SSYTKMC,-0.934 ± 0.78
18,STCGEAVKTFLVGLFELFMV,0.452 ± 0.66
19,STCSTGHRSLRTKKRNSILS,4.34 ± 0.096
20,STCVCYGSFCEASLWASLDG,6.58 ± 0.075
21,STLVDGGTGYMCYFFAWHQS,inactive
22,STQYPTMVERLS,1.75 ± 0.3
23,STRDQQWMMRNRG,-0.381 ± 0.79
24,STSRCMRLHWGTFNYCSNIF,0.721 ± 0.35
25,STSVTMHSLSDF,-1.02 ± 0.78

row,Substance,amyloid nucleation score
1,STTHHARRFVSHESACLGAV,1.11 ± 0.17
2,STVPRVSLLLAPCQVIVAWE,5.449 ± 0.05
3,STVWVFRYYNNYWYDQRTLP,6.807 ± 0.054
4,STWHLFWSP,0.654 ± 0.26
5,STYPILR,2.02 ± 0.18
6,SVCGLWWLSHSVQRWSEWYS,5.99 ± 0.067
7,SVCYGSSIWN,-0.083 ± 0.39
8,SVDHLDSVFDYFHVRYKFIS,-1.09 ± 1.1
9,SVESIYLVVDVMMLGELCCA,4.849 ± 0.034
10,SVFYVSKSSLTPDLDSVFLS,-0.376 ± 0.48
11,SVGPLLYATMSMAGDSVAGA,0.004 ± 0.34
12,SVGSGPVSSLRRKHDRGDTP,0.253 ± 0.35
13,SVGYWTVDSVTSVATPLFLA,0.331 ± 0.35
14,SVIDFLLAYRKDLWCWDLT,0.19 ± 0.8
15,SVKLHSGGSWLRTWDWPRVC,1.55 ± 0.21
16,SVKQGN,0.132 ± 0.22
17,SVLAFKSFGSHCIGYIYVNL,inactive
18,SVLCEGTPEETTFLSDRLSG,1.09 ± 0.27
19,SVLLVSLDFSPITGYSKGGL,2.72 ± 0.082
20,SVLSLTKMFGFVADGSRIIK,-0.574 ± 0.5
21,SVMFMNSSFQRAT,-0.586 ± 0.42
22,SVNWTRLRECKPWMQVFNRG,0.208 ± 0.56
23,SVNYVCISLVVM,7.14 ± 0.072
24,SVQFRMIQDLRVAADGRPRA,5.545 ± 0.05
25,SVQSSWLNLLAVYIVFCCQR,-0.833 ± 0.54

row,Substance,amyloid nucleation score
1,SVRMVFIGNLSRGNWSALWS,7.627 ± 0.037
2,SVSETLWYDYIFKFVISVAN,-1.03 ± 0.63
3,SVVGQKVGGR,0.487 ± 0.33
4,SVVLFEYGWICEIIEGSDII,inactive
5,SVVLYMLVLLDADLSVKTRD,2.52 ± 0.06
6,SVVVCWGKFLSGVGAWLFHS,inactive
7,SVYLVG,-0.271 ± 0.65
8,SWATLRVCNIFCMITCSYFM,1.51 ± 0.15
9,SWCCTSIYHVRLW,9.427 ± 0.058
10,SWCLKRRTPHFVQVYHRNND,-0.095 ± 0.26
11,SWDHDYCGRWWCSNARGKIN,4.3 ± 0.07
12,SWFWVPGNQLLMTIEGFQWS,-0.281 ± 0.35
13,SWNTVVFSGKDNSILGVLAQ,-0.176 ± 0.45
14,SWSCMTRW,5.464 ± 0.049
15,SWVNMIMNMSLHTDIRYMLY,1.66 ± 0.25
16,SWVRVDHLNDMYRFELK,0.286 ± 0.46
17,SWWIGASEVVHGSKSEGI,-0.357 ± 1.1
18,SYACNRYKRMTAQIRNQGGM,0.225 ± 0.42
19,SYANCNLNVNTLREEVHERW,0.268 ± 0.62
20,SYDIFWILWLASCMLILYII,2.92 ± 0.099
21,SYDLELAT,0.667 ± 0.18
22,SYDPSVMAVGSH,-0.135 ± 0.33
23,SYEAGMHVNKGYLQVMCVDG,-0.086 ± 0.23
24,SYFGSAHKVAEAHL,0.377 ± 0.45
25,SYGWFCSRVIFWRSGNFYWK,inactive

row,Substance,amyloid nucleation score
1,SYHGVRLFDIHIGSLKFQQ,7.549 ± 0.054
2,SYILGILFVFYVCETKYLYL,0.328 ± 0.25
3,SYIWR,-0.551 ± 0.64
4,SYLLSKMQHFLMVTK,-1.32 ± 0.53
5,SYNFM,inactive
6,SYNKMMVDRFKYADLRDVRA,1.03 ± 0.38
7,SYPACRNRAVVRARGVVNLW,2.7 ± 0.18
8,SYSYDRVRKDTELARRNRAV,0.436 ± 0.44
9,SYTCSS,-0.211 ± 0.48
10,SYVNKWAECLSCTTEYTMSK,inactive
11,SYWGQIGRSHTSCLCPSDQV,inactive
12,SYWNLRQVVSIDDCMQSTFN,0.058 ± 1
13,SYWSLRLFCFQLCLDHYRNG,2.74 ± 0.21
14,SYYLALYLMEYFYLDDARLN,-1.2 ± 1
15,TACVSWGPSYWV,inactive
16,TAFSNRCLIQSQKSYLQFSV,inactive
17,TAGLYDKTLFYSFYLRYPKF,inactive
18,TAHGAQWVPDWWEPVTSAYW,1.21 ± 0.21
19,TAKSVVA,-0.703 ± 0.29
20,TARDVFIAVFA,0.089 ± 1.1
21,TAVVLTTGLHVIQVLWHN,2.94 ± 0.12
22,TAVWDL,0.745 ± 0.42
23,TCIDEGEVVLDFFNVIKVLC,inactive
24,TCIYSYRRNSCRIGCLRSWR,0.425 ± 0.6
25,TCNSSGPMMRCLIHWETRHR,5.17 ± 0.093

row,Substance,amyloid nucleation score
1,TCNWGMDG,0.553 ± 0.62
2,TCSFMMCLPTRLARIIDPWM,-0.322 ± 0.49
3,TCVVMAKGKLVVPVQEYPCV,2.62 ± 0.11
4,TCWKDYIYIFALVNYSGHRA,inactive
5,TCYTTSVRNSTS,0.082 ± 0.36
6,TDAGNKGNTTCNRRSACLFY,0.669 ± 0.74
7,TDASYNRMVTYFKWIISGYR,-1.39 ± 0.54
8,TDCVKTRPCGRLVKIPLYME,-0.708 ± 1.1
9,TDKIWSCHLGQTAWLSKSSG,0.385 ± 0.33
10,TDLYCFSSI,-1.29 ± 1
11,TDVAY,0.258 ± 0.2
12,TDYGLVALSQWKRVCLIQSG,0.176 ± 0.22
13,TDYLGLWPWVSSSLGRVVTW,1.22 ± 0.45
14,TEIRLNVSLRSRRGPCPTRL,6.06 ± 0.06
15,TETAL,-1.05 ± 0.61
16,TFAIIQYRNCLVTPISFKHF,6.5 ± 0.081
17,TFATYTISNCLYVPRPVT,0.879 ± 0.19
18,TFFGWLALRIWARYRYE,inactive
19,TFLLAFFIFFLNG,-0.306 ± 0.53
20,TFLTLA,0.979 ± 0.4
21,TFNRFFRCSVFAFRA,4.53 ± 0.062
22,TFPMEFLPF,-1.12 ± 0.49
23,TFRYVWLSHPV,3.63 ± 0.11
24,TFTFDGRSSNFG,-0.343 ± 0.55
25,TFVLSNC,-0.356 ± 0.65

row,Substance,amyloid nucleation score
1,TGCMSFSWPWTLLVSPIQLS,-0.651 ± 0.48
2,TGDSYLYRWVSARFGHRLRS,-0.314 ± 0.27
3,TGFNRCGSRWWLLVSNVKLV,-0.388 ± 0.54
4,TGHFKKYVKGEGADDSNCAL,0.347 ± 0.29
5,TGNVTGRLFWNVFVRYSGVL,-0.03 ± 0.55
6,TGQKFT,-0.615 ± 0.41
7,TGTFRIAWM,6.64 ± 0.063
8,TGVIAYVRKVGDLSSCVYSC,3.6 ± 0.14
9,TGYAWGG,2.16 ± 0.22
10,THKNLEC,0.681 ± 0.17
11,THLKYTFWIFV,2.62 ± 0.14
12,THLLVVWFDNRYF,0.978 ± 0.74
13,THQRAYCFSSVYWVNVSKSG,-0.006 ± 0.74
14,THTLRGLQANRMISNNMDTI,-0.402 ± 0.61
15,TICVSSVRRTGKGSWVRDWA,0.356 ± 0.5
16,TIFLFLFSMVSVVICLMVLP,-1.31 ± 0.55
17,TIGRGYGSISQRHAIRLGDN,0.164 ± 0.8
18,TIIRMKLS,1.39 ± 0.39
19,TIWVATLDFPNSYMSSALFV,4.27 ± 0.093
20,TKDERFV,0.218 ± 0.29
21,TKLLP,-0.149 ± 0.55
